Target: recombinant prefusion stabilized SARS-CoV-2-2P spike protein (SARS-CoV-2) (UniProt P0DTC2)

## D72-15: VHH72-GS-hIgG1hinge-hIgG1Fc-L234A-L235A-P329G (Fc fusion)
  EC50: 0.014 µg/mL

Reference: patent US20230227537A1
